± gives the standard deviation of the averaged measurements.
Test system: ATP
Assay: switch fluorescence ratio, 500 uM ATP over buffer (Cy3 cluster intensity, sum of 5 cycles each) (fold (ratio)); higher = stronger signal-on switching upon ATP binding; sequences stand for … in TCGTCGGCAGCGTCAGATGTGTATAAGAGACAGTTTTTTTTTTTTTTTTTTTTTTTTT…TC
Conditions: aptamer strand: ATP DNA aptamer (quencher-CACCTGGGGGAGTATTGCGGAGGAAGG + anchor), 100 nM annealed; ATP concentration: 500 uM
How it was run: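 Five buffer/ATP imaging cycles were run on Cy3-labelled switching-strand clusters on a modified Illumina MiSeq flow-cell, with NaOH stripping and re-annealing between cycles. In each cycle, clusters annealed to 100 nM quencher-labelled ATP aptamer were imaged in selection buffer, then after 15 min with 500 uM ATP at 22 °C. Per cluster, the fluorescence ratio is summed target-cycle over summed buffer-cycle Cy3 intensity, averaged per switch-domain sequence. Only clusters within 100-1000 RFU were kept.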
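Further: ATP exposure 15 min at 22 °C before imaging.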

Row | Sequence | switch fluorescence ratio
1 | ACAGCAGTGT | 1.03 ± 0.035
2 | TAGGAAGTCG | 0.995 ± 0.047
3 | GAGTAAGAGT | 1.0175 ± 0.00091
4 | GGGAGGAAGG | 0.974 ± 0.028
5 | GTTTACTATA | 1.06 ± 0.049
6 | GGGGAAATCC | 1.02 ± 0.046
7 | CATGTAGTGC | 1.03 ± 0.089
8 | TCCTACTGTT | 0.9957 ± 0.0061
9 | AGCTAAAGGC | 1.03 ± 0.032
10 | GGGACGCGCA | 0.984 ± 0.036
11 | TTCGGAATTG | 1.04 ± 0.033
12 | CGAGTACGGT | 0.979 ± 0.028
13 | CGGCAATGGT | 1.87 ± 1.1
14 | TTCGTTTATT | 1.01 ± 0.046
15 | AAGTCATTAA | 0.99 ± 0.031
16 | TTGGTTGGAA | 1 ± 0.072
17 | GTTAGAGAGG | 0.9779 ± 0.0078
18 | GCTTTATTCC | 1.06 ± 0.018
19 | CGTTGGTTTT | 1.04 ± 0.02
20 | CGACTGATTA | 0.991 ± 0.013
21 | CCATAACTTA | 0.9782 ± 0.0033
22 | CAGTCCGGCA | 1.05 ± 0.021
23 | TTGTAAACTT | 1.03 ± 0.012
24 | TTTGTGCACC | 0.9941 ± 0.005
25 | TTCAGTTGAG | 1 ± 0.014

Row | Sequence | switch fluorescence ratio
26 | ATGATATCTA | 0.993 ± 0.022
27 | CGATGGTGTT | 1.01 ± 0.035
28 | GATGCGGCTA | 1.02 ± 0.018
29 | TATGAAGAGG | 0.994 ± 0.033
30 | TAACGGGAAT | 0.99 ± 0.02
31 | TATTTGGAAA | 0.991 ± 0.036
32 | GCGCTATGAG | 1.04 ± 0.02
33 | TTTAATAGTT | 1.03 ± 0.022
34 | ACGAGTTTGG | 0.963 ± 0.036
35 | TCAGTTTGTT | 0.997 ± 0.023
36 | AGAGTCATGT | 1.01 ± 0.029
37 | ATGTGTAAAA | 0.99 ± 0.013
38 | CACTTTTTTA | 0.962 ± 0.039
39 | GTTTTTCCTT | 0.998 ± 0.022
40 | TGTGAGTTGG | 1 ± 0.029
41 | CCAAAGCTAG | 2.1 ± 0.028
42 | TTACAATATT | 1.07 ± 0.03
43 | TTGACCTGGT | 1.05 ± 0.053
44 | TTGTAGGGAG | 1 ± 0.027
45 | AAGAGGGGTA | 0.999 ± 0.018
46 | GCAGGGGCTG | 1.02 ± 0.016
47 | TTCGGAAATG | 1.03 ± 0.025
48 | ATCAATTGTT | 0.989 ± 0.015
49 | TGGAAGTTAG | 0.964 ± 0.029
50 | GTTGTATGAT | 0.9841 ± 0.0096

Row | Sequence | switch fluorescence ratio
51 | CGTTAAGTTT | 0.9804 ± 0.0066
52 | TATACGTGCC | 1.03 ± 0.025
53 | CACGGTATTT | 1.19 ± 0.067
54 | GTTTAAGGAG | 1.02 ± 0.066
55 | AGGTTCACTT | 0.998 ± 0.025
56 | CCTTGGAACG | 1.03 ± 0.011
57 | TAATCGAGGG | 0.9831 ± 0.0091
58 | AAAACTTAGG | 0.978 ± 0.012
59 | TTGACGAAAT | 1.41 ± 0.03
60 | CCGTAATATT | 3.69 ± 1.8
61 | ATGGTCGGCC | 0.9831 ± 0.0052
62 | CTTTGTAGT | 1.013 ± 0.01
63 | AATTGGGGTA | 0.989 ± 0.026
64 | TAGGACGGTG | 0.992 ± 0.034
65 | GGAACCGGGT | 1.029 ± 0.0086
66 | CTTTTAGGTG | 1.11 ± 0.12
67 | CCTTCAGAGG | 1.12 ± 0.033
68 | GGCGGGGGCA | 0.995 ± 0.024
69 | CTCTCGAAGC | 1.1577 ± 0.0001
70 | GAGGATGGTT | 0.964 ± 0.04
71 | TTGATTCATA | 0.98126 ± 0.00011
72 | GTTGGATTGG | 0.996 ± 0.019
73 | TCAGATAGGG | 0.968 ± 0.017
74 | CTTATTATGG | 0.975 ± 0.021
75 | TGCTCGGATG | 0.993 ± 0.03

Row | Sequence | switch fluorescence ratio
76 | TAGTTATTA | 0.989 ± 0.026
77 | GGTTAGTGTG | 0.997 ± 0.015
78 | TAACACCGGC | 1.06 ± 0.025
79 | GGTGATAGGA | 0.98 ± 0.034
80 | AGAGTAGGGT | 1 ± 0.0043
81 | GGGGTTAAAC | 1.04 ± 0.034
82 | CGTTACCGGA | 1.01 ± 0.029
83 | AGATTTGTCG | 0.993 ± 0.068
84 | GCCGGCTTCT | 1.02 ± 0.016
85 | GGTTCTATGG | 0.99441 ± 3.1e-05
86 | TTTACGTTTG | 0.9919 ± 0.0017
87 | CGTGGGGGCG | 1.01 ± 0.03
88 | TTTGGAATAC | 2.92 ± 1
89 | TAGCTCATTA | 0.979 ± 0.019
90 | ATTTTACGTG | 1 ± 0.016
91 | ATAAAAAATC | 0.986 ± 0.017
92 | GCTATGGAGC | 1.06 ± 0.079
93 | ATCGGGGTGC | 1.03 ± 0.016
94 | ATGAGGGCTA | 0.983 ± 0.044
95 | CCATATTCTC | 1.016 ± 0.0072
96 | GATAGACGCA | 1.1 ± 0.089
97 | TTTGATCGCA | 0.999 ± 0.025
98 | TTAGGCCCTG | 0.992 ± 0.041
99 | GGCCACTGGA | 1.02 ± 0.021
100 | CGTGGGCATT | 1.01 ± 0.034

From the supplement of paper PMC10126150
